Several values for one entry are separate records, joined by “and”; a condition that tells them apart may be missing. Equal entries are not always repeated.
Experiments:
recombinant human DLL4 [1] = target: T1, recombinant human DLL4 (human, UniProt Q9NR61 25-522); assay: cell-based or functional assay
recombinant human DLL4 [2] = target: T1, recombinant human DLL4; assay: SPR Biacore T100; rhDLL4 on chip; heterogeneous binding curve, no 1:1 fit
[3] = target: T2, cynomolgus DLL4 overexpressed on CHO cells (cynomolgus, UniProt Q9NR61 27-685 (human entry)); assay: FACS, CHO-cDLL4 cells
T2 construct: also called CHO-cDLL4; cDLL4
T2 chain: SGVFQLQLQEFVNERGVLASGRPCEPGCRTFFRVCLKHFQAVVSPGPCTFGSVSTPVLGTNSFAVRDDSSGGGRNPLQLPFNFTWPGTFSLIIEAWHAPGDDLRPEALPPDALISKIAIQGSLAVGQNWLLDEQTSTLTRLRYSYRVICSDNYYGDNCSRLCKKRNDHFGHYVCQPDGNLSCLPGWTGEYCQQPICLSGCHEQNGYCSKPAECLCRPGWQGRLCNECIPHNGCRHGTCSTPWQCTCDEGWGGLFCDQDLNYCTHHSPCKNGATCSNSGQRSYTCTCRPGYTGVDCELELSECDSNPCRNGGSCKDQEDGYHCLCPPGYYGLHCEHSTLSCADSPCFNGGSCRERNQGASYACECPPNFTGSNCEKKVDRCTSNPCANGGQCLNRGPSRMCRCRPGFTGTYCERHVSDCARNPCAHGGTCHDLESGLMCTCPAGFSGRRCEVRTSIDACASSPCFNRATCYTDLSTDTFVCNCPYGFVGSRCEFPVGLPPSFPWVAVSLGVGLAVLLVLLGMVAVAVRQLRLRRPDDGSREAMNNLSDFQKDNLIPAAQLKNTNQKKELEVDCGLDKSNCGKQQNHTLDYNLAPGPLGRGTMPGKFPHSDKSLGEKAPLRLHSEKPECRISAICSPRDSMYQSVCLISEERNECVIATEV
Experimental: Additionally, in order to determine cross-reactivity of the bispecific VHHs to murine and cynomolgus DLL4, a FACS binding experiment is performed. Briefly, CHO cells overexpressing mouse and cynomolgus DLL4 are used for a titration binding experiment of the VHHs. After a 30 min incubation on ice, all samples are washed and a 2-step detection using anti-c-myc followed by goat-anti mouse IgG-PE labeled is performed. CHO cells overexpressing human DLL4 are taken as reference. The mean MCF value is determined using a FACS Array and used for calculation of the EC₅₀ value (Table 24; FIG. 19).

recombinant mouse DLL4 = target: T3, recombinant mouse DLL4 (mouse, UniProt Q9JI71 27-532); assay: binding ELISA, coated mDLL4
T3 construct: extracellular domain; also called rmDLL4; mDLL4; not shown: C-terminal His tag
T3 sequence (Q9JI71 27-532): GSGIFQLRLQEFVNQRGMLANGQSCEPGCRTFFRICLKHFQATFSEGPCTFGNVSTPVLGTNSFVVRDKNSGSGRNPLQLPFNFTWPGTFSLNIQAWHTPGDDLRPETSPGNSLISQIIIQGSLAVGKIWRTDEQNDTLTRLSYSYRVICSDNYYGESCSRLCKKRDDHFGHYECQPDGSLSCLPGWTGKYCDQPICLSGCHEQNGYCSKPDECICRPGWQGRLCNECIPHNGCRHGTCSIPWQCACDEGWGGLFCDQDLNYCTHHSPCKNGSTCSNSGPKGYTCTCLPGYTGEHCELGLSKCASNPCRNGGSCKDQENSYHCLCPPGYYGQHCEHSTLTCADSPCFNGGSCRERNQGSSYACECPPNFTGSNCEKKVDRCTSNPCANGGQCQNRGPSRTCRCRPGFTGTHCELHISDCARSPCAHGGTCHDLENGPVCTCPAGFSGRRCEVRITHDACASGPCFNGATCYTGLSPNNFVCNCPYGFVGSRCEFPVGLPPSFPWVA
Experimental: (§1) In order to determine cross-reactivity to mouse DLL4 and rat DLL4, a binding ELISA is performed. […] Wells are blocked with a 1% casein solution. VHHs are applied as dilution series and binding is detected biotinylated anti-VHH 1A4 followed by extravidin-HRP. 1A4 is an anti-VHH VHH (generated in-house by Ablynx NV). As reference binding to human DLL4 is measured.

rat DLL4 = target: T4, rat DLL4 (rat, UniProt D3ZHH1 28-530, limits assumed); assay: binding ELISA, coated rat DLL4
T4 construct: also called rDLLA; rDLL4
T4 sequence (D3ZHH1 28-530 limits assumed): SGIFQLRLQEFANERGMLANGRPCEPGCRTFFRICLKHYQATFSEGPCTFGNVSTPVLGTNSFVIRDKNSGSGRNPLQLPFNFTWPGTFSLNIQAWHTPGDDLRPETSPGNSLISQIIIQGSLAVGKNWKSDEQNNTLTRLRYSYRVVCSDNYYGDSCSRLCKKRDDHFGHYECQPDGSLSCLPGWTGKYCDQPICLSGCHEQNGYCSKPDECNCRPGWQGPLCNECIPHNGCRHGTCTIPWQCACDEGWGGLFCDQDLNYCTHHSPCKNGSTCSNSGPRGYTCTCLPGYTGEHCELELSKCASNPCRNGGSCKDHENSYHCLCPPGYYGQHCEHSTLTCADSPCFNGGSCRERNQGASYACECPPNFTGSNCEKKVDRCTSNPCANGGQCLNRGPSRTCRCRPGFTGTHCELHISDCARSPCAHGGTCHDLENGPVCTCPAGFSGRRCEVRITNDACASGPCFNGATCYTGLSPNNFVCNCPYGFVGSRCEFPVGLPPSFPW
Experimental: as §1

[4] = target: recombinant human DLL4 extracellular domain, C-terminally His-tagged (R&D Systems) (human, UniProt Q9NR61 25-522, biotinylated in the competition assays (sites not given)); assay: cell-based or functional assay
[5] = target: human DLL4, full length, overexpressed on CHO or HEK293 cells (human, UniProt Q9NR61 27-685); assay: cell-based or functional assay
[6] = target: T5, recombinant human Jagged-1 (Alexis) (human, UniProt P78504 34-1067, limits assumed); assay: binding ELISA on coated rhJagged-1
T5 construct: also called hJagged-1; hJAG1
Experimental: Absence of binding to homologous ligands human DLL1 and human Jagged-1 is assessed via solid phase binding assay (ELISA). In brief, human DLL1 (Alexis, San Diego, Calif., USA) and human Jagged-1 (Alexis, San Diego, Calif., USA) are coated overnight at 4° C. at 1 μg/mL in a 96-well MaxiSorp plate (Nunc, Wiesbaden, Germany). Wells are blocked with a casein solution (1% in PBS). VHHs are applied as dilution series and binding is detected using a mouse anti-myc (Roche) and an anti-mouse-AP conjugate (Sigma, St. Louis, Mo., USA).

human Ang2 = target: T6, human Ang2 (human, UniProt O15123 19-496, limits assumed); assay: competition ELISA: hAng2 binding to hTie2
T6 construct: also called hAng2; human Angiopoietin2
T6 sequence (looked up): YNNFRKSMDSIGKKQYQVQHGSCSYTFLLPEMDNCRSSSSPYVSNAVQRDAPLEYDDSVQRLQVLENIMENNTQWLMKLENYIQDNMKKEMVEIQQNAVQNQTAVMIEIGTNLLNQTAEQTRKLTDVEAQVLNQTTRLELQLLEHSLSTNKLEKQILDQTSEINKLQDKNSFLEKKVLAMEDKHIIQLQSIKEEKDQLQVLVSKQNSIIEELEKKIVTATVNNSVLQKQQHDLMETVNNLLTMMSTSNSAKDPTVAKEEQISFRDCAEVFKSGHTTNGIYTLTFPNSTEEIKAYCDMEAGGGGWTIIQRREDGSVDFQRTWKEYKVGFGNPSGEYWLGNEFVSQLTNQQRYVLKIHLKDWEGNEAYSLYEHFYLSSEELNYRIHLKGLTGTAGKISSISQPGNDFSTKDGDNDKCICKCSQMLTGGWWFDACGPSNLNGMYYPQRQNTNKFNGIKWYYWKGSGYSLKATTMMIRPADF

mouse Ang2 = target: T7, mouse Ang2 (mouse, UniProt O35608 19-496, limits assumed); assay: competition ELISA: mAng2 binding to mTie2
T7 construct: also called mAng2
T7 sequence (looked up): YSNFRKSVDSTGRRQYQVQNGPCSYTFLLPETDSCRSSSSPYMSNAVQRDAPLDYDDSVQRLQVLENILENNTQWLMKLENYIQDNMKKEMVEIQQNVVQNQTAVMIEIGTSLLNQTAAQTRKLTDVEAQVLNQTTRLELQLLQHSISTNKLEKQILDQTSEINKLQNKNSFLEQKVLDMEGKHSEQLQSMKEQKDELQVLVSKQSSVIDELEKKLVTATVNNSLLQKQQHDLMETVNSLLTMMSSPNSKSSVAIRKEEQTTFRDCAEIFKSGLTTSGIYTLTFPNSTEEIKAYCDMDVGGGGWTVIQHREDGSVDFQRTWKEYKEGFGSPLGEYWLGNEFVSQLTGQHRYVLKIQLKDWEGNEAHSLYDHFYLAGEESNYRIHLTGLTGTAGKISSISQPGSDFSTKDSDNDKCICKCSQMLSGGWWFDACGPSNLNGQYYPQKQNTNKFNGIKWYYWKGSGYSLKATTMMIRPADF

cynomolgus Ang2 = target: T8, cynomolgus Ang2 (cynomolgus); assay: competition ELISA: cAng2 binding to cTie2
T8 construct: also called cAng2; cyno Ang2

B1: DLLBII104G01 (VHH)
VHH: EVQLVESGGGLVQAGGSLRLSCAASGFTFDDYAIGWFRQAPGKEREGVSCISSSDGSTYYADSVKGRFTISSDNAKNTVYLQMNSLKPEDTAVYYCATAWCDSSWYRSFVGYWGQGTQVTVSS
notes: also called 104G1; not shown: C-terminal c-myc tag and His6 tag
Q: Which results are given for B1?
A: IC50 (nM) in the DLL4 proliferation assay (HUVEC, experiment 1) (recombinant human DLL4 [1]): 103 nM; IC50 (nM) in the DLL4 proliferation assay (HUVEC, experiment 2) (recombinant human DLL4 [1]): 32 nM; kon (recombinant human DLL4 [2]): 120000 M⁻¹ s⁻¹ and 150000 M⁻¹ s⁻¹

B2: DLLBII00018 (VHH)
VHH: DVQLVESGGGLVQPGGSLRLSCAASGRTFSSYAMAWYRQAPGKEREYVAAIRWSGGTAYYADSVKGRFTISRDNAKNTVYLQMNSLRPEDTAVYYCANRAPDTRLAPYEYDHWGQGTLVTVSS
Q: Which EC50 [3] does the source give for B2 here?
A: 0.8 nM

Q: And the EC50 (recombinant mouse DLL4)?
A: 3.3 nM

Q: What about the EC50 (rat DLL4) of the same binder?
A: 2.6 nM

B3: DLLBII56A09 (VHH)
VHH: EVQLVESGGGLVQPGGSLRLSCAASGFTFDDYAIGWFRQAPGKEPEGISCISSSGGITYYADSVKGRFTTSRDNAKNTVYLQMNSLKPEDTAVYYCATPGIAACRGIHYTGQGTQVTVSS
notes: also called 56A9; DLLBII56A9; not shown: C-terminal c-myc and His6 tags
Q: B3 was tested. Which “concentration giving complete inhibition, HUVEC proliferation assay” value [4] did it give?
A: 10 µM

Q: What about the “IC50, DLL4/Notch1 reporter assay (luciferase; co-culture with HEK293-hDII4)” value [5] of the same binder?
A: 540 nM

Q: Does B3 bind [6]?
A: no binding (tested: 2.5e-7 M)

B4: 00956 (VHH)
VHH: EVQLVESGGGLVQPGGSLRLSCAASGFTLDDYAIGWFRQAPGKEREGVSAIRSSGGSTYYADSVKGRFTISSDNSKNTVYLQMNSLRPEDTAVYYCAAVPAGRLRFGEQWYPLYEYDAWGQGTLVTVSS
Q: How did the “IC50 (read off the curve)” value (human Ang2) turn out when B4 was run?
A: ~1 nM

Q: And the “IC50 (read off the curve)” value (mouse Ang2)?
A: ~2 nM

Q: And the “IC50 (read off the curve)” value (cynomolgus Ang2)?
A: ~2 nM

Reference: patent publication US20130078247A1 (Boehringer Ingelheim, published 2013)
